Where no end group is shown, it is not given here.
T1: Tau fragment 28-42 (human, UniProt P10636-8 28-42)
T1 construct: range 28-42
T1 peptide (looked up): GYTMHQDQEGDTDAG

T2: Tau fragment 37-51 (human, UniProt P10636-8 37-51)
T2 construct: range 37-51
T2 peptide (looked up): GDTDAGLKESPLQTP

T3: Tau fragment 1-15 (human, UniProt P10636-8 1-15)
T3 construct: range 1-15
T3 peptide (looked up): MAEPRQEFEVMEDHA

T4: Tau fragment 19-33 (human, UniProt P10636-8 19-33)
T4 construct: range 19-33
T4 peptide (looked up): GLGDRKDQGGYTMHQ

T5: MAPT(10-24) (human, also: biotinylated (position not given here))
T5 construct: also called Tau fragment 10-24
T5 peptide: VMEDHAGTYGLGDRK


Experiments:
[1] = biological target: T6, Human Tau monomer (recombinant 2N4R isoform, amino acids 2-441) (human, UniProt P10636-8 2-441); test: SPR 25C, hIgG captured, Tau monomer analyte
T6 construct: range 2-441; also called monomeric human Tau; human monomer Tau protein
T6 sequence (P10636 other isoform, or with tags, fused parts or gaps limits assumed): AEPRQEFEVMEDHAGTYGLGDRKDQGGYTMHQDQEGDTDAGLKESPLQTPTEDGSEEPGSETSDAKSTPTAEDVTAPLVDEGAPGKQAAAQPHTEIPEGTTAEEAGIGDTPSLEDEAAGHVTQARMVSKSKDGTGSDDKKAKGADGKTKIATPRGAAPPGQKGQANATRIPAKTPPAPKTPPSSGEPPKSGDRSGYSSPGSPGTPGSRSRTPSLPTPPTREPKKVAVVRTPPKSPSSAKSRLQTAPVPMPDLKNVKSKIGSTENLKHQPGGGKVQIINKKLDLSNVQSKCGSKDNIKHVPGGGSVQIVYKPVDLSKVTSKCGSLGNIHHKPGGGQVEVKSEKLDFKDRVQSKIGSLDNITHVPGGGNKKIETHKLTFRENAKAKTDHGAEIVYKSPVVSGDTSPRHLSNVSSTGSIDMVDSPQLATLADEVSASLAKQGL

[2] = biological target: T6, Human Tau monomer (recombinant 2N4R …); test: SPR, hIgG captured, Tau monomer 3.1-100 nM
Description: To assess the impact of N²⁸ deamidation on the affinity for human Tau, it was desirable to obtain two samples with widely separated N²⁸ deamidation status. Hu37D3-H9.v5 hIgG4.S228P was incubated at 40° C. for two weeks at a concentration of 1 mg/ml in Phosphate Buffered Saline, pH 7.4. Deamidation of the N²⁸G²⁹ motif was measured using LC-MS/MS. […] The stressed and unstressed antibodies were analyzed for Tau binding by surface plasmon resonance (Biacore) using the GE Biacore human IgG capture kit and a Series S CM5 chip. The hIgG were diluted to 2 μg/ml in 10 mM HEPES pH7.4, 150 mM NaCl, 0.05% Tween 20 (running buffer, HBSP) and captured at a flow rate of 10 μl/min for 15 seconds (t0 sample) or 17 seconds (t2 sample). […] Between cycles the surface was regenerated using a 30 second injection of 3M Magnesium Chloride at 10 μl/min. A 1:1 binding model was fitted to the data using instrument defaults, including local fitting of the “RI” parameter.

[3] = biological target: T6, Human Tau monomer (recombinant 2N4R …); test: SPR 37C, hIgG captured, Tau monomer 0.1-33.3 nM
Description: Affinity for human and cynomolgus monkey Tau was measured at 37° C. using a Biacore T200 instrument, the GE Biacore human IgG capture kit and a Series S CM5 Sensor Chip. Antibodies were diluted to 1 μg/ml in running buffer HBS-EP (10 mM HEPES pH7.4, 150 mM NaCl, 1 mM EDTA, 0.05% Tween 20) and captured at a flow rate of 10 μl/min for 15 seconds. Data was collected for the binding of human and cynomolgus Tau monomer, each of which was injected at 0, 0.1, 0.4, 1.2, 3.7, 11.1, and 33.3 nM, using a flow rate of 30 μl/min, a contact time of 300 s, and a dissociation time of 900 s. Between cycles, the surface was regenerated with 3M magnesium chloride. Data was fit to a 1:1 binding model using BIAEvaluation software.

Tau fragment 28-42 = biological target: T1, Tau fragment 28-42; test: ELISA on Tau 15-mer peptides
Tau fragment 37-51 = biological target: T2, Tau fragment 37-51; test: ELISA on Tau 15-mer peptides
Tau fragment 1-15 = biological target: T3, Tau fragment 1-15; test: ELISA on Tau 15-mer peptides
Tau fragment 19-33 = biological target: T4, Tau fragment 19-33; test: ELISA on Tau 15-mer peptides
MAPT(10-24) = biological target: T5, MAPT(10-24); test: ELISA on Tau 15-mer peptides

Binder	Kd [3] [nM]	koff [3] [s⁻¹]	kon [3] [M⁻¹ s⁻¹]	binding result (Tau fragment 28-42)	binding result (Tau fragment 37-51)	binding result (Tau fragment 1-15)	binding result (Tau fragment 19-33)	other results
hu37D3-H9.v5 hIgG4.S228P, stressed (t = 2 weeks) (antibody, V domains shown, light chain N28 (Kabat) partly deamidated: 43.1% increase after 2 weeks at 40 C in PBS pH 7.4, human IgG4 with S228P, kappa; thermally stressed sample, a mixed population) VH: EVQLVESGGGLVQPGGSLRLSCAASGLIFRSYGMSWVRQAPGKGLEWVATINSGGTYTYYPDSVKGRFTISRDNSKNTLYLQMNSLRAEDTAVYYCANSYSGAMDYWGQGTLVTVSS VL: EDVLTQTPLSLPVTPGQPASISCRSSQSIVHSNGNTYFEWYLQKPGQSPQLLIYKVSNRFSGVPDRFSGSGSGTDFTLKISRVEAEDVGVYYCFQGSLVPWTFGQGTKVEIK	–	–	–	–	–	–	–	Kd [1]: 1.5 nM; Kd [2]: 0.7 nM
hu37D3-H9.v76 (antibody, V domains shown) VH: EVQLVESGGGLVQPGGSLRLSCAASGLIFRSYGMSWVRQAPGKGLEWVATINSGGTRTYYPDSVKGRFTISRDNSKNTLYLQMNSLRAEDTAVYYCANSYSGAMDYWGQGTLVTVSS VL: DDLLTQTPLSLPVTPGQPASISCRSSQSIVHSNGNTYLEWYLQKPGQSPQLLIYKVSNRFSGVPDRFSGSGSGTDFTLKISRVEAEDVGVYYCFQGTLVPWTFGQGTKVEIK	0.1	0.000892	6.94e+06	–	–	–	–	–
hu37D3-H9.v83 (antibody, V domains shown) VH: EVQLLESGGGLVQPGGSLRLSCAASGLIFRSYGMSWVRQAPGKGLEWVATINSGGTRTYYPDSVKGRFTISRDNSKNTLYLQMNSLRAEDTAVYYCANSYSGAMDYWGQGTLVTVSS VL: DDLLTQSPLSLPVTLGQPASISCRSSQSIVHSNGNTYLEWYQQRPGQSPRLLIYKVSNRFSGVPDRFSGSGSGTDFTLKISRVEAEDVGVYYCFQGTLVPWTFGQGTKVEIK	0.1	0.000818	6.19e+06	–	–	–	–	–
19H6-F7 (antibody, IgG2a, V domains shown, Ex.2 hybridoma supernatant; Ex.3 recombinant mIgG2a/kappa) VH: EVQLVESGGDLVKPGGSLKLSCAASGFTFSSYGMSWVRQTPDKRLEWVATISSGGTYTYYPDSVKGRFTISRDNAKNTLYLQMSSLKSEDTAMYYCAPSYDGAMDYWGQGTSVTVSS VL: DVLMTQTPLSLPVSLGDQASISCRSSQSIVHSNGNTYLEWYLQKPGQSPKLLIYKVSNRFSGVPDRFSGSGSGTDFTLKISRVEAEDLGVYYCFQGSLVPWTFGGGTKLEIK	–	–	–	no binding	no binding	no binding	no binding	–

Second part, led by results:

Kd [3] [nM]	koff [3] [s⁻¹]	kon [3] [M⁻¹ s⁻¹]	binding result (Tau fragment 28-42)	binding result (Tau fragment 37-51)	binding result (Tau fragment 1-15)	binding result (Tau fragment 19-33)	Binder	other results
0.1	0.00102	6.89e+06	–	–	–	–	hu37D3-H9.v93 (antibody, V domains shown) VH: EVQLVESGGGLVQPGGSLRLSCAASGLIFRSYGMSWVRQAPGKGLEWVATINSGGTRTYYPDSVKGRFTISRDNSKNTLYLQMNSLRAEDTAVYYCANSYSGAMDYWGQGTLVTVSS VL: EDLLTQSPSSLSASVGDRVTITCRSSQSIVHSNGNTYLEWYQQKPGKSPKLLIYKVSNRFSGVPSRFSGSGSGTDFTLTISSLQPEDFATYYCFQGTLVPWTFGQGTKVEIK	–
–	–	–	no binding	no binding	–	–	94B2-C1 (antibody, IgG2a, V domains shown, Ex.2 hybridoma supernatant; Ex.3 recombinant mIgG2a/kappa) VH: EVQLQQSGPELVKPGASMKISCKASGYSLTGYTMNWVKQSHGKNLEWIGLISPYNGVTSYNQKFKGKATLTVDKSSNTAYMELLSLTFEDSAVYYCARQGAYWGQGTLVTVSA VL: not shown	–
–	–	–	–	–	no binding	no binding	89F4-A1 (antibody, IgG2a, V domains shown, Ex.2 hybridoma supernatant; Ex.3 recombinant mIgG2a/kappa) VH: EVQLVESGGGLVQPKGSLKLSCAASGFTFNTYAMNWVRQAPGKGLEWVARIRSKSNNYAAYFADSVKDRFTISRDDSQTMLYLQMNNLKSEDTAMYYCVSGGNYVPFAYWGQGTLVTVSA VL: NIMMTQSPSSLAVSAGEKVTMSCKSSQSVFYSSEQRNYLAWYQQKPGQSPKLLISWASTRESGVPDRFTGSGSGTDFTLTISSVQGEDLAVYYCHQYLSSFTFGSGTKLEIK	binding result (MAPT(10-24)): no binding
–	–	–	–	no binding	no binding	–	123E9-A1 (antibody, IgG2a, V domains shown, Ex.2 hybridoma supernatant; Ex.3 recombinant mIgG2a/kappa) VH: EVQLQQSGPELVKPGASVKMSCKASGYTFTDYYMKWVKQSHGKSLEWIGDIDPNNGGTSYNQKFKGKATLTVDKSSSTAYMQLNSLTSEDSAVYYCARSAGFGDSFSFWGLGTLVTVSA VL: DVLMTQTPLSLPVSLGDQASISCRSSQSIVHSNGNTYLEWYLQKPGQSPKLLIYKVSNRFSGVPDRFSGSGSGTDFTLKISRVEAEDLGFYYCFQGSHVPPTFGGGTKLEIK	binding result (MAPT(10-24)): no binding
–	–	–	no binding	no binding	no binding	no binding	54C1-H11 (antibody, IgG2a, V domains shown, Ex.2 hybridoma supernatant; Ex.3 recombinant mIgG2a/kappa) VH: EVQLVESGGDLVKPGGSLKVSCVASGFTFRSYGMSWVRQTPDKRLDWVATISSGGNYTYYPDSVKGRFTISRDNAKNTLYLQMSSLKSEDTAMYYCASSYSGAMDYWGQGTSVTVSS VL: DTVMTQSPLSLPVSLGDQASISCRSSQSIVHSNGNTYLEWYLQKPGQSPKLLIYTVSNRFSGVPDRFSGSGSGTDFTLKISRVEAEDLGVYYCFQGSHVPWTFGGGTKLEIK	–
–	–	–	no binding	no binding	no binding	no binding	3A4-H4 (antibody, IgG2a, V domains shown, Ex.2 hybridoma supernatant; Ex.3 recombinant mIgG2a/kappa) VH: EVQLVESGGDLVKPGGSLKLSCAASGFTFSSYGMSWVRQTPDKRLEWVATISSGGTYTYYPDSVKGRFTISRDNAKNTLYLQMSSLKSEDTAMYFCATSYDGAMDYWGQGTSVTVSS VL: DVLMTQTPLSLPVSLGDQASISCRSSQNIVHSNGNTYLEWYLQKPGQSPKLLIYKVSNRFSGVPDRFSGSGSGTDFTLKISRVEAEDLGVYYCFQGTLVPWTFGGGTKLEIK	–
